This note sets out measurements from patent US20240327530A1 (ICHNOS SCIENCES, published 2024).

In assay [1] the target is T1, Mouse IL-1RAP, membrane-bound on NIH-3T3 cells (mouse, UniProt Q61730 21-570).
T1 construct: Endogenous protein on cells
T1 sequence (looked up): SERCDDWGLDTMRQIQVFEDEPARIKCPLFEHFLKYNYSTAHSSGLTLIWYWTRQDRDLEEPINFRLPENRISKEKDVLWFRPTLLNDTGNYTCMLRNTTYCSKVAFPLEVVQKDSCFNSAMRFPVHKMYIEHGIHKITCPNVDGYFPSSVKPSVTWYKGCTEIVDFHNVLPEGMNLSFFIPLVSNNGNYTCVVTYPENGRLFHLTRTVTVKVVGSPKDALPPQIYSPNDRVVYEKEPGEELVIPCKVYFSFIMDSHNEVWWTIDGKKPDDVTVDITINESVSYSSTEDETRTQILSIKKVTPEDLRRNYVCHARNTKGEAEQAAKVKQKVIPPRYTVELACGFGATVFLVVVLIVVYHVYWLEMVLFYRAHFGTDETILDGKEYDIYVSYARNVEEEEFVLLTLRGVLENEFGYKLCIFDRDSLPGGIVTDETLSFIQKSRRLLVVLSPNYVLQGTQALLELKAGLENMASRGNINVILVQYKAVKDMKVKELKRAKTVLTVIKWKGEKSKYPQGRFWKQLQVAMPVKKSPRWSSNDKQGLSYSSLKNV
In words: flow cytometry on NIH-3T3 cells, PE-Cyanine7 secondary antibody, relative mean fluorescence intensity (isotype subtracted); upper of two curves. Here is the method: In brief, cells were harvested, counted, and plated at 50′000 cells/well in a 96-well round-bottom plate. The plate was centrifuged at 350 g for 3 minutes and the cells were resuspended in […] of FACS® buffer (PBS (1×)+2.5% FCS+2 mM EDTA+0.05% NaN₃) containing various concentrations (ranging from 20 to 0.0001 μg/ml) of either anti-mouse IL-1RAP_candidate_1 or Isotype control_2 antibodies. Stained cells were incubated for 30 minutes at 4° C., washed twice with FACS® buffer at 350 g for 3 min and resuspended in 100 μl of a monoclonal anti-mouse IgG PE-Cyanine7 secondary antibody (Biolegend, 407114) diluted 1/200 in FACS® buffer. Cells were then washed twice, and resuspended in 200 μl of FACS® buffer containing SYTOX® Green dead cell stain (THERMO FISHER […]®, S34860) and samples were acquired on a CYTOFLEX® instruments (Beckman Coulter). The cells were gated based on size on FSC vs SSC and analysed for PE-Cyanine7-geometric mean (geomean) fluorescence intensity using FLOWJO® software. Finally, relative geomean fluorescence intensity was calculated by subtracting fluorescence of anti-mouse IL-1RAP_candidate_1 per fluorescence of Isotype control_2. As depicted in FIG. 11, anti-mouse IL-1RAP_candidate_1 antibody recognizes membrane-bound IL-1RAP expressed on NIH-3T3 cell line. […] Each data point is a measurement for a given cell line. […]
Background: Flow cytometry measures light scatter and fluorescence of single cells or particles in a stream.

The target of assay [2] is T2, Recombinant human IL-1RAP-ECD(S21-E359)-avi-his protein (human, UniProt Q9NPH3 21-359).
T2 construct: Biotinylated where loaded on streptavidin; also called human IL-1RAP-ECD-Avi-His; recombinant human IL-1RAP-avi-his protein
T2 sequence: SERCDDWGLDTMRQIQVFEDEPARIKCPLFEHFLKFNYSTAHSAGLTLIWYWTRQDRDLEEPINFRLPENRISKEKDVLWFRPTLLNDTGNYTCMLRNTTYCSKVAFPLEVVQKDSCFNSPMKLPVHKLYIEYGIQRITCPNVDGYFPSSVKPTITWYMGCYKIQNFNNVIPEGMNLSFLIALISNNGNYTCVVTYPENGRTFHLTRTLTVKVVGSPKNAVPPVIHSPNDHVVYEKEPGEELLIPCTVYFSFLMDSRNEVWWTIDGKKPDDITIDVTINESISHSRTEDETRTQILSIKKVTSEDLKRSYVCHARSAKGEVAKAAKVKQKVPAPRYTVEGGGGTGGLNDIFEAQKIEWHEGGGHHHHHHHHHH
Kind of assay: SPR, IgG1 LALA captured on anti-human IgG Fc CM5 chip, human IL-1RAP-avi-his as analyte in a concentration series, 1:1 fit, one representative replicate. The method, then:
Anti-IL-1RAP-C8-RecC-ES IgG1 LALA was immobilized on a Series S CM5 sensor CHIP coupled with anti-human IgG Fc. Human IL-1RAP-avi-his or cynomolgus monkey IL-1RAP-avi-his was injected over immobilized IgG1 LALA in concentration series in HBS-EP+ buffer. One representative replicate for human IL-1RAP and cynomolgus monkey IL-1RAP is presented. Plots are showing data expressed as number of resonance units (abbreviated RU; Y axis) vs. time (s, X axis). Dotted lines represent the measured data while solid lines represent simulated fits. KD: equilibrium dissociation constant; Ka: association constant; Kd: dissociation constant.
Surface plasmon resonance (SPR) was used to measure the binding affinities of the human IgG1 LALA molecules for human and cynomolgus monkey IL-1RAP. Affinities were measured on a BIACORE™ T200 instrument (BIACORE™, GE […]®) at 25° C. and analyzed with the BIACORE™ T200 Evaluation Software (v3.1). Measurements were performed on Series S CM5 sensor chips (BIACORE™ T200, BIACORE™, GE […]®, catalog no. BR100530) coupled with anti-human IgG Fc (BIACORE™, GE […]®, catalog no. BR100839) using a commercial amine coupling kit (BIACORE™, GE […]®, catalog no. BR100050). SPR measurements were performed with recombinant human IL-1RAP-avi-his protein produced in house (SEQ ID NO. 1) or recombinant cynomolgus monkey IL-1RAP-avi-his protein produced in house (SEQ ID NO. 2). The affinities to human and cynomolgus monkey IL-1RAP were assessed by immobilizing anti-IL-1RAP IgG1 LALA molecules and using IL-1RAP proteins as analyte. Around 150 RU of human IgG1 LALA were captured on fc2 of a Series S CM5 sensor chip coupled with anti-human IgG Fc. Recombinant human IL-1RAP-avi-his protein or recombinant cynomolgus monkey IL-1RAP-avi-his protein was injected in multi cycle kinetic at different concentrations ranging from 0.14 to 100 nM, in HBS-EP+ buffer (BIACORE™, GE […]®, catalog no. BR100669) at a flow rate of 30 μl/min for 3 min on fc1 and fc2 (fc1 being used as reference). Dissociation was monitored for 12 min.
(In SPR one partner is held on a chip, and binding of the other changes the refractive index at the surface.)

As a reminder, the EC50 (read off the curve) is the concentration needed to bring the measured effect to its halfway point. For orientation: Kd means the equilibrium constant for the complex coming apart. In general, koff refers to the first-order rate constant of dissociation. For orientation: kon means a measure of how fast the partners come together.

B1: Anti-IL-1RAP-C3-A3 mmIgG2a LALA (antibody, V domains shown)
VH: EVQLLESGGGLVQPGGSLRLSCAASGFIFSHYGMSWVRQAPGKGLEWVSAISYDGEGTLYADSVKGRFTISRDNSKNTLYLQMNSLRAEDTAVYYCARFRYYTAFDYWGQGTLVTVSS
VL: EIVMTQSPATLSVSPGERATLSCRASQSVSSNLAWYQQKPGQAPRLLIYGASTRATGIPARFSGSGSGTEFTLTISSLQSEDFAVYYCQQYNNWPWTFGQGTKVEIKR
notes: also called anti-IL-1RAP-C3-A3 mouse IgG2a LALA
For B1, the “EC50 (read off the curve)” value in assay [1] was ~0.01 µg/mL.

B2: Anti-IL-1RAP-C8-RecC-ES-IgG1LALA (antibody, V domains shown)
VH: QVQLVQSGAEVKKPGSSVKVSCKASGSPAEPYAIQWVRQAPGQGLEWMGYIIPSLGGYDYAQKFQGRVTITADESTSTAYMELSSLRSEDTAVYYCARGQTLYESGRQFDIWGQGTLVTVSS
VL: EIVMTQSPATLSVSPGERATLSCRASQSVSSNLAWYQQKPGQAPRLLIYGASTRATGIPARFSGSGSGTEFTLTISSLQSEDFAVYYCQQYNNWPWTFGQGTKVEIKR
notes: also called ISB 880-C8-recC-ES
With B2, in assay [2], the Kd is 0.267 nM, the koff is 0.000169 s⁻¹ and the kon was found to be 633000 M⁻¹ s⁻¹.
